The subject of this test is HT-1080 cells. The test can be described thus: Immunofluorescence staining of cells treated with cell death inducers, membrane intensity. It counts as cell-based, human. Here is the method:
HT-1080 (ATCC Cat #CRL-7951, RRID:CVCL_0317), A-673, SK-BR-3, SK-LMS-1 and Huh-7 cells were treated with 1 μM RSL3 for 4 h, 15 μM erastin for 8 h, 10 μM IKE for 8 h, 15 μM FINO2 for 8 h, 10 μM FIN56 for 8 h, 100 μM tBuOOH for 8 h, 1 μM staurosporine (STS) for 6 h, 2 μM camptothecin (CPT) for 24 h, 1 μM RSL3+5 μM Fer-1 for 4 h and 10 μM IKE+5 μM Fer-1 for 8 h on poly-lysine-coated cover slips (Sigma Aldrich P4832) in 24-well plate. Media were taken out and the cells were gently washed with PBS^++ (PBS with 1 mM CaCl2) and 0.5 mM MgCl2) twice. The cells were fixed and permeabilized by adding 200 μL/well of 4% paraformaldehyde (PFA) in PBS with 0.1% Triton X-100 (PBT), and incubated at room temperature for 18 min. The cells were then washed with PBT three times. Then the cells were blocked with 5% goat serum (ThermoFisher 50197Z) in PBT for 1 h at room temperature. The cells were incubated with purified mouse monoclonal antibodies (1:5 dilution), mouse mAb 3F3 FMA (1:500 dilution), Transferrin Receptor/CD71 Monoclonal Antibody, Clone: H68.4, Invitrogen (Thermo Fisher Scientific Cat #13-6800, RRID:AB_2533029, 1:250 dilution), Cd71 (D7G9X) XP® Rabbit mAb (Cell Signaling Technology Cat #13113, RRID:AB_2715594, 1:100 dilution), CD71 (3B8 2A1) (Santa Cruz Biotechnology Cat #sc-32272, RRID:AB_627167, 1:50 dilution), Tom20 (FL-145) (Santa Cruz Biotechnology Cat #sc-11415, RRID:AB_2207533, 1:250 dilution), PDI antibody [RL90]—ER Marker (Abcam Cat #ab2792, RRID:AB_303304, 1:100 dilution), Gm130 (D6B1) XP® Rabbit mAb (Cell Signaling Technology Cat #12480, RRID:AB_2797933, 1:3200 dilution), Anti-Malondialdehyde antibody (Abcam Cat #ab6463, RRID:AB_305484, 1:400 dilution), Anti-4 Hydroxynonenal antibody (Abcam Cat #ab46544, RRID:AB_722493, 1:50 dilution), ACSL4 Antibody (F-4) (Santa Cruz Biotechnology Cat #sc-365230, RRID:AB_10843105, 1:50 dilution), mouse mAb 1F83 (1:100 dilution), which specifically recognizes the malondialdehyde (MDA)-lysine adduct 4-methyl-1,4-dihydropyridine-3,5-dicarbaldehyde (MDHDC) (Yamada et al., 2001), in PBT with 1% BSA and 5% goat serum overnight at 4° C. The cells were washed with PBT for 5 min three times. The cells were incubated with Goat anti-Mouse IgG (H+L) Highly Cross-Adsorbed Secondary Antibody, Alexa Fluor 594 (Thermo Fisher Scientific Cat #A-11032, RRID:AB_2534091, 1:200 dilution) or Goat anti-Rabbit IgG (H+L) Highly Cross-Adsorbed Secondary Antibody, Alexa Fluor 488 (Thermo Fisher Scientific Cat #A-11034, RRID:AB_2576217, 1:200 dilution) at room temperature for 1 h. The cells were washed with PBT for 5 min three times. ProLong Diamond antifade mountant with DAPI (ThermoFisher P36962) was added to stain the nucleus. All images were captured on a Zeiss LSM 800 confocal microscope at Plan-Apochromat 63x/1.40 Oil DIC objective with constant laser intensity for all samples. When applicable, line-scan analysis was performed on representative confocal microscopy images using Zeiss LSM software to qualitatively visualize fluorescence overlap.
The quantification of the intensity of antibodies was analyzed using CellProfiler 3.1.8 (Carpenter et al., 2006) (CellProfiler Image Analysis Software, RRID:SCR_007358). Nuclei were firstly identified as primary objects using global minimum cross entropy strategy. […] Then mean intensities and size areas of nuclei, cytoplasm and plasma membranes were then measured and reported. […]

B1: 3F3-FMA: murine monoclonal IgG1 raised against ferroptotic membrane fractions; antigen is human transferrin receptor protein 1 (TfR1) (antibody, V domains shown)
VH: EVLLQQSGTELVRPGALVKLSCKASGFNIQDLYIHWVKQRPEQGLEWIGWIDPETDNTIYDPKFQGKASITADTSSNTAYLQLSSLTSEDTAMYYCSTGLLQWYFDVWGAGTAVTVSS
VL: DIVMTQSPSSLAMSIGQKVTMRCKSSQSLLNSYNQKNCLAWYQQKPGQSPKLLLYFVSTRESGVPDRFIGSGSGTDFTLTISSVQAEDLADYFCQQHYSTPLTFGAGTKLELK
For B1, the “staining / membrane intensity in RSL3-induced ferroptosis” value (1 μM RSL3, 4 h vs DMSO) was “stained cell boundaries and the inside puncta became brighter”. Also, the “cell surface / membrane staining in STS-induced apoptosis” value (1 μM staurosporine, 6 h) was “wasn't detected”. The “cell surface / membrane intensity in camptothecin-induced apoptosis” value (2 μM camptothecin, 24 h) is recorded as “no significant increase”. In addition, the “membrane intensities in H2O2-treated cells” value (1 mM H2O2, 4 h) is recorded as “didn't observe increased membrane intensities”. Moreover, the “staining pattern with other ferroptosis inducers” value (IKE, erastin, FIN56, FINO2 and tBuOOH, 8 h) is listed as “the same changes of 3F3-FMA pattern were observed”.

The values above are taken from patent publication US20220412989A1, “COMPOSITIONS AND METHODS FOR DETECTING CELLS UNDERGOING FERROPTOSIS USING AN ANTIBODY” (THE TRUSTEES OF COLUMBIA UNIVERSITY IN THE CITY OF NEW YORK, priority 2020, published 2022).
